Experimental findings from PMC10641296 (2023) are described below.

In experiment [1] the target is recombinant histidine-tagged SCM-2 of S. canis strain IMT42870 (Streptococcus canis). The experiment is described as follows: SPR. (In SPR one partner is held on a chip, and binding of the other changes the refractive index at the surface.)
Experiment [2] addresses recombinant histidine-tagged SCM-2 of S. canis strain IMT40096 (Streptococcus canis). Description: SPR.

Values joined by “and” are separate entries in the source; they are usually repeats but may differ in a detail not shown here. Equal values may be shown once.

B1: human fibrinogen (complex)
chain 1: GPRVVERHQSACKDSDWPFCSDEDWNYKCPSGCRMKGLIDEVNQDFTNRINKLKNSLFEYQKNNKDSHSLTTNIMEILRGDFSSANNRDNTYNRVSEDLRSRIEVLKRKVIEKVQHIQLLQKNVRAQLVDMKRLEVDIDIKIRSCRGSCSRALAREVDLKDYEDQQKQLEQVIAKDLLPSRDRQHLPLIKMKPVPDLVPGNFKSQLQKVPPEWKALTDMPQMRMELERPGGNEITRGGSTSYGTGSETESPRNPSSAGSWNSGSSGPGSTGNRNPGSSGTGGTATWKPGSSGPGSTGSWNSGSSGTGSTGNQNPGSPRPGSTGTWNPGSSERGSAGHWTSESSVSGSTGQWHSESGSFRPDSPGSGNARPNNPDWGTFEEVSGNVSPGTRREYHTEKLVTSKGDKELRTGKEKVTSGSTTTTRRSCSKTVTKTVIGPDGHKEVTKEVVTSEDGSDCPEAMDLGTLSGIGTLDGFRHRHPDEAAFFDTASTGKTFPGFFSPMLGEFVSETESRGSESGIFTNTKESSSHHPGIAEFPSRGKSSSYSKQFTSSTSYNRGDSTFESKSYKMADEAGSEADHEGTHSTKRGHAKSRPVRDCDDVLQTHPSGTQSGIFNIKLPGSSKIFSVYCDQETSLGGWLLIQQRMDGSLNFNRTWQDYKRGFGSLNDEGEGEFWLGNDYLHLLTQRGSVLRVELEDWAGNEAYAEYHFRVGSEAEGYALQVSSYEGTAGDALIEGSVEEGAEYTSHNNMQFSTFDRDADQWEENCAEVYGGGWWYNNCQAANLNGIYYPGGSYDPRNNSPYEIENGVVWVSFRGADYSLRAVRMKIRPLVTQ
chain 2: GHRPLDKKREEAPSLRPAPPPISGGGYRARPAKAAATQKKVERKAPDAGGCLHADPDLGVLCPTGCQLQEALLQQERPIRNSVDELNNNVEAVSQTSSSSFQYMYLLKDLWQKRQKQVKDNENVVNEYSSELEKHQLYIDETVNSNIPTNLRVLRSILENLRSKIQKLESDVSAQMEYCRTPCTVSCNIPVVSGKECEEIIRKGGETSEMYLIQPDSSVKPYRVYCDMNTENGGWTVIQNRQDGSVDFGRKWDPYKQGFGNVATNTDGKNYCGLPGEYWLGNDKISQLTRMGPTELLIEMEDWKGDKVKAHYGGFTVQNEANKYQISVNKYRGTAGNALMDGASQLMGENRTMTIHNGMFFSTYDRDNDGWLTSDPRKQCSKEDGGGWWYNRCHAANPNGRYYWGGQYTWDMAKHGTDDGVVWMNWKGSWYSMRKMSMKIRPFFPQQ
chain 3: YVATRDNCCILDERFGSYCPTTCGIADFLSTYQTKVDKDLQSLEDILHQVENKTSEVKQLIKAIQLTYNPDESSKPNMIDAATLKSRKMLEEIMKYEASILTHDSSIRYLQEIYNSNNQKIVNLKEKVAQLEAQCQEPCKDTVQIHDITGKDCQDIANKGAKQSGLYFIKPLKANQQFLVYCEIDGSGNGWTVFQKRLDGSVDFKKNWIQYKEGFGHLSPTGTTEFWLGNEKIHLISTQSAIPYALRVELEDWNGRTSTADYAMFKVGPEADKYRLTYAYFAGGDAGDAFDGFDFGDDPSDKFFTSHNGMQFSTWDNDNDKFEGNCAEQDGSGWWMNKCHAGHLNGVYYQGGTYSKASTPNGYDNGIIWATWKTRWYSMKKTTMKIIPFNRLTIGEGQQHHLGGAKQVRPEHPAETEYDSLYPEDDL
As to B1, in experiment [1], the Kd (in general, the concentration at which binding is half-saturated) is 177 nM and 188 nM and 208 nM; the koff (in general, a measure of how fast the partners let go of each other) is 0.00271 s⁻¹ and 0.0024 s⁻¹ and 0.00216 s⁻¹. Moreover, in experiment [2], the Kd is 15.5 nM and 14.3 nM and 15.1 nM; the off-rate (koff) is 0.000922 s⁻¹ and 0.000948 s⁻¹ and 0.000989 s⁻¹.
